From US20220098306A1 (published 2022)
Like-named read-outs stand apart in the source and are kept apart here.

T1: B7H3 (antigen of the affinity statements) (human, UniProt Q5ZPR3 29-466)
T1 chain: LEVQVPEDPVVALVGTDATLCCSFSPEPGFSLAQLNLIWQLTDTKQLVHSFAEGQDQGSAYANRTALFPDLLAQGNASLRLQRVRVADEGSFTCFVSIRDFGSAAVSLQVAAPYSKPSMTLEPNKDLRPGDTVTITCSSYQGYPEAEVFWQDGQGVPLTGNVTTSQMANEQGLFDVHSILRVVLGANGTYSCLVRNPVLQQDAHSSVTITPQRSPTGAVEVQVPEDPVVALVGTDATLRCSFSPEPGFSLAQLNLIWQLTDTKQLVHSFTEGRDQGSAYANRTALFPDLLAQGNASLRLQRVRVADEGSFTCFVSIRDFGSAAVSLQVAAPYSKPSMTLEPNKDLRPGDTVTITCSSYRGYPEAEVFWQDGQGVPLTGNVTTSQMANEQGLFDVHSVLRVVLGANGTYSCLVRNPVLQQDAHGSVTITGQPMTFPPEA


Key:
[1] = target: T2, CD28 (antigen of the affinity determinations) (human, UniProt P10747 19-152); experiment: -; scFv VHVL, 1+1 Fab-scFv-Fc
CD28-Fc-His protein [2] = target: T3, CD28-Fc-His protein (human, UniProt P10747 19-152); experiment: Octet; 1:1 Langmuir
CD28-Fc-His protein [3] = target: T3, CD28-Fc-His protein; experiment: Octet; Steady State
[4] = target: T2, CD28 (antigen of the affinity …); experiment: -; Fab, 2+1 CLC
[5] = target: T1, B7H3 (antigen of the affinity …); experiment: -; monovalent KD
[6] = target: T2, CD28 (antigen of the affinity …)

Kd [1]	Kd (CD28-Fc-His protein [2])	Kd (CD28-Fc-His protein [3])	Kd [4]	Binder	further results
180 nM				H1_L1.71 (antibody, V domains shown) VH: EVQLLESGGGLVQPGGSLRLSCAASGFTFSSYAMSWVRQAPGKGLEWVSTISGSGDSTYYADSVKGRFTISRDNSKNTLYLQMNSLRAEDTAVYYCAKSGPGLRQVGFDYWGQGTLVTVSS VL: not shown	
91.6 nM				H1.1_L1.71 (antibody, V domains shown) VH: EVQLLESGGGLVQPGGSLRLSCAASGFTFSSYYMSWVRQAPGKGLEWVSTISGSGDSTYYADSVKGRFTISRDNSKNTLYLQMNSLRAEDTAVYYCAKSGPGLRQVGFDYWGQGTLVTVSS VL: not shown	
	790 nM	560 nM		XENP34389 (bispecific antibody) heavy 1: EVQLLESGGGLVQPGGSLRLSCAASGFTFSNYYMAWVRQAPGKGLEWVSSISTGGGSTYYRDSVKGRFTISRDNSKSTLYLQMNSLRAEDTAVYYCTTDLSAIAATPFAYWGQGTLVTVSSASTKGPSVFPLAPSSKSTSGGTAALGCLVKDYFPEPVTVSWNSGALTSGVHTFPAVLQSSGLYSLSSVVTVPSSSLGTQTYICNVNHKPSDTKVDKKVEPKSCDKTHTCPPCPAPPVAGPSVFLFPPKPKDTLMISRTPEVTCVVVDVKHEDPEVKFNWYVDGVEVHNAKTKPREEEYNSTYRVVSVLTVLHQDWLNGKEYKCKVSNKALPAPIEKTISKAKGQPREPQVYTLPPSREEMTKNQVSLTCDVSGFYPSDIAVEWESDGQPENNYKTTPPVLDSDGSFFLYSKLTVDKSRWEQGDVFSCSVMHEALHNHYTQKSLSLSPGK heavy 2: not shown light: DIQMTQSPSSLSASVGDRVTITCRASQNIYTSLAWYQQKPGKAPKLLIYNAHSLQTGIPSRFSGSGSGADFTLTISSLQPEDFATYFCQQYYSGLTFGSGTKLEIKRTVAAPSVFIFPPSDEQLKSGTASVVCLLNNFYPREAKVQWKVDNALQSGNSQESVTEQDSKDSTYSLSSTLTLSKADYEKHKVYACEVTHQGLSSPVTKSFNRGEC	
	96 nM	150 nM		XENP34339 (bispecific antibody) heavy 1: EVQLLESGGGLVQPGGSLRLSCAASGFTFSSYYMSWVRQAPGKGLEWVSTISESGDSTYYADSVKGRFTISRDNSKNTLYLQMNSLRAEDTAVYYCAKSGPGLRQVGFDYWGQGTLVTVSSASTKGPSVFPLAPSSKSTSGGTAALGCLVKDYFPEPVTVSWNSGALTSGVHTFPAVLQSSGLYSLSSVVTVPSSSLGTQTYICNVNHKPSDTKVDKKVEPKSCDKTHTCPPCPAPPVAGPSVFLFPPKPKDTLMISRTPEVTCVVVDVKHEDPEVKFNWYVDGVEVHNAKTKPREEEYNSTYRVVSVLTVLHQDWLNGKEYKCKVSNKALPAPIEKTISKAKGQPREPQVYTLPPSREEMTKNQVSLTCDVSGFYPSDIAVEWESDGQPENNYKTTPPVLDSDGSFFLYSKLTVDKSRWEQGDVFSCSVMHEALHNHYTQKSLSLSPGK heavy 2: QVQLVQSGAEVKKPGASVKVSCKASGYIFTNNYMHWVRQAPGQGLEWMGIISPSVGRTAYAQKFQGRVTMTRDTSTSTVYMELSSLRSEDTAVYYCARGGGSSPRLDYWGQGTLVTVSSASTKGPSVFPLAPSSKSTSGGTAALGCLVKDYFPEPVTVSWNSGALTSGVHTFPAVLQSSGLYSLSSVVTVPSSSLGTQTYICNVNHKPSNTKVDKKVEPKSCGKPGSGKPGSQVQLVQSGAEVKKPGASVKVSCKASGYIFTNNYMHWVRQAPGQGLEWMGIISPSVGRTAYAQKFQGRVTMTRDTSTSTVYMELSSLRSEDTAVYYCARGGGSSPRLDYWGQGTLVTVSSASTKGPSVFPLAPSSKSTSGGTAALGCLVKDYFPEPVTVSWNSGALTSGVHTFPAVLQSSGLYSLSSVVTVPSSSLGTQTYICNVNHKPSNTKVDKKVEPKSCDKTHTCPPCPAPPVAGPSVFLFPPKPKDTLMISRTPEVTCVVVDVKHEDPEVKFNWYVDGVEVHNAKTKPREEQYNSTYRVVSVLTVLHQDWLNGKEYKCKVSNKALPAPIEKTISKAKGQPREPQVYTLPPSREQMTKNQVKLTCLVKGFYPSDIAVEWESNGQPENNYKTTPPVLDSDGSFFLYSKLTVDKSRWQQGNVFSCSVMHEALHNHYTQKSLSLSPGK light: not shown	
			200 nM	XENP37810 (bispecific antibody) heavy 1: EVQLLESGGGLVQPGGSLRLSCAASGFTFSSYYMSWVRQAPGKGLEWVSTISESGDSTYYADSVKGRFTISRDNSKNTLYLQMNSLRAEDTAVYYCAKSGPGLRQVGFDYWGQGTLVTVSSASTKGPSVFPLAPSSKSTSGGTAALGCLVKDYFPEPVTVSWNSGALTSGVHTFPAVLQSSGLYSLSSVVTVPSSSLGTQTYICNVNHKPSDTKVDKKVEPKSCDKTHTCPPCPAPPVAGPSVFLFPPKPKDTLMISRTPEVTCVVVDVKHEDPEVKFNWYVDGVEVHNAKTKPREEEYNSTYRVVSVLTVLHQDWLNGKEYKCKVSNKALPAPIEKTISKAKGQPREPQVYTLPPSREEMTKNQVSLTCDVSGFYPSDIAVEWESDGQPENNYKTTPPVLDSDGSFFLYSKLTVDKSRWEQGDVFSCSVLHEALHSHYTQKSLSLSPGK heavy 2: QVQLVQSGAEVKKPGASVKVSCKASGYIFTNHYMHWVRQAPGQGLEWMGIISPSAGSTDYAQKFQGRVTMTRDTSTSTVYMELSSLRSEDTAVYYCARGGGSSPRLDYWGQGTLVTVSSASTKGPSVFPLAPSSKSTSGGTAALGCLVKDYFPEPVTVSWNSGALTSGVHTFPAVLQSSGLYSLSSVVTVPSSSLGTQTYICNVNHKPSNTKVDKKVEPKSCGKPGSGKPGSQVQLVQSGAEVKKPGASVKVSCKASGYIFTNHYMHWVRQAPGQGLEWMGIISPSAGSTDYAQKFQGRVTMTRDTSTSTVYMELSSLRSEDTAVYYCARGGGSSPRLDYWGQGTLVTVSSASTKGPSVFPLAPSSKSTSGGTAALGCLVKDYFPEPVTVSWNSGALTSGVHTFPAVLQSSGLYSLSSVVTVPSSSLGTQTYICNVNHKPSNTKVDKKVEPKSCDKTHTCPPCPAPPVAGPSVFLFPPKPKDTLMISRTPEVTCVVVDVKHEDPEVKFNWYVDGVEVHNAKTKPREEQYNSTYRVVSVLTVLHQDWLNGKEYKCKVSNKALPAPIEKTISKAKGQPREPQVYTLPPSREQMTKNQVKLTCLVKGFYPSDIAVEWESNGQPENNYKTTPPVLDSDGSFFLYSKLTVDKSRWQQGNVFSCSVLHEALHSHYTQKSLSLSPGK light: not shown	
			232 nM	XENP37808 (bispecific antibody) heavy 1: EVQLLESGGGLVQPGGSLRLSCAASGFTFSSYYMSWVRQAPGKGLEWVSTISGSGDSTYYADSVKGRFTISRDNSKNTLYLQMNSLRAEDTAVYYCAKSGPGLRQVGFDYWGQGTLVTVSSASTKGPSVFPLAPSSKSTSGGTAALGCLVKDYFPEPVTVSWNSGALTSGVHTFPAVLQSSGLYSLSSVVTVPSSSLGTQTYICNVNHKPSDTKVDKKVEPKSCDKTHTCPPCPAPPVAGPSVFLFPPKPKDTLMISRTPEVTCVVVDVKHEDPEVKFNWYVDGVEVHNAKTKPREEEYNSTYRVVSVLTVLHQDWLNGKEYKCKVSNKALPAPIEKTISKAKGQPREPQVYTLPPSREEMTKNQVSLTCDVSGFYPSDIAVEWESDGQPENNYKTTPPVLDSDGSFFLYSKLTVDKSRWEQGDVFSCSVLHEALHSHYTQKSLSLSPGK heavy 2: QVQLVQSGAEVKKPGASVKVSCKASGYIFTNNYMHWVRQAPGQGLEWMGIISPSVGRTAYAQKFQGRVTMTRDTSTSTVYMELSSLRSEDTAVYYCARGGGSSPRLDYWGQGTLVTVSSASTKGPSVFPLAPSSKSTSGGTAALGCLVKDYFPEPVTVSWNSGALTSGVHTFPAVLQSSGLYSLSSVVTVPSSSLGTQTYICNVNHKPSNTKVDKKVEPKSCGKPGSGKPGSQVQLVQSGAEVKKPGASVKVSCKASGYIFTNNYMHWVRQAPGQGLEWMGIISPSVGRTAYAQKFQGRVTMTRDTSTSTVYMELSSLRSEDTAVYYCARGGGSSPRLDYWGQGTLVTVSSASTKGPSVFPLAPSSKSTSGGTAALGCLVKDYFPEPVTVSWNSGALTSGVHTFPAVLQSSGLYSLSSVVTVPSSSLGTQTYICNVNHKPSNTKVDKKVEPKSCDKTHTCPPCPAPPVAGPSVFLFPPKPKDTLMISRTPEVTCVVVDVKHEDPEVKFNWYVDGVEVHNAKTKPREEQYNSTYRVVSVLTVLHQDWLNGKEYKCKVSNKALPAPIEKTISKAKGQPREPQVYTLPPSREQMTKNQVKLTCLVKGFYPSDIAVEWESNGQPENNYKTTPPVLDSDGSFFLYSKLTVDKSRWQQGNVFSCSVLHEALHSHYTQKSLSLSPGK light: not shown	Kd [5]: 7.6 nM; Kd [6]: 230 nM
